{
  "source": "patent US20020147129A1",
  "key": {"[1]": {"biological_target": "embryonic chicken Ang II receptor (chicken)", "sequence (P79785 whole entry)": "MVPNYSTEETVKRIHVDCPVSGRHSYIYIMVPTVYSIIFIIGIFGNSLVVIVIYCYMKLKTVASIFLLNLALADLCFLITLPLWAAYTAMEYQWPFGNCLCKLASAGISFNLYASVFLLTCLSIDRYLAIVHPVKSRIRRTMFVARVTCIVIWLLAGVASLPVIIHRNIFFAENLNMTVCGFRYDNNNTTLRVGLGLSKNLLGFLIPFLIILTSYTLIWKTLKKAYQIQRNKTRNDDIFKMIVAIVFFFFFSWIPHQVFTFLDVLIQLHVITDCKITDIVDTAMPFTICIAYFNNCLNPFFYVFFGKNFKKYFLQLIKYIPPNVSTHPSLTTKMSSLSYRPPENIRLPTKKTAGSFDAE", "experiment": "competition for 125I[Sar1Ile8]Ang II binding, E13 chicken chorioallantoic membranes"}, "[2]": {"biological_target": "embryonic chicken AT4 receptor (chicken)", "sequence (F1NNE7 entry or part of it)": "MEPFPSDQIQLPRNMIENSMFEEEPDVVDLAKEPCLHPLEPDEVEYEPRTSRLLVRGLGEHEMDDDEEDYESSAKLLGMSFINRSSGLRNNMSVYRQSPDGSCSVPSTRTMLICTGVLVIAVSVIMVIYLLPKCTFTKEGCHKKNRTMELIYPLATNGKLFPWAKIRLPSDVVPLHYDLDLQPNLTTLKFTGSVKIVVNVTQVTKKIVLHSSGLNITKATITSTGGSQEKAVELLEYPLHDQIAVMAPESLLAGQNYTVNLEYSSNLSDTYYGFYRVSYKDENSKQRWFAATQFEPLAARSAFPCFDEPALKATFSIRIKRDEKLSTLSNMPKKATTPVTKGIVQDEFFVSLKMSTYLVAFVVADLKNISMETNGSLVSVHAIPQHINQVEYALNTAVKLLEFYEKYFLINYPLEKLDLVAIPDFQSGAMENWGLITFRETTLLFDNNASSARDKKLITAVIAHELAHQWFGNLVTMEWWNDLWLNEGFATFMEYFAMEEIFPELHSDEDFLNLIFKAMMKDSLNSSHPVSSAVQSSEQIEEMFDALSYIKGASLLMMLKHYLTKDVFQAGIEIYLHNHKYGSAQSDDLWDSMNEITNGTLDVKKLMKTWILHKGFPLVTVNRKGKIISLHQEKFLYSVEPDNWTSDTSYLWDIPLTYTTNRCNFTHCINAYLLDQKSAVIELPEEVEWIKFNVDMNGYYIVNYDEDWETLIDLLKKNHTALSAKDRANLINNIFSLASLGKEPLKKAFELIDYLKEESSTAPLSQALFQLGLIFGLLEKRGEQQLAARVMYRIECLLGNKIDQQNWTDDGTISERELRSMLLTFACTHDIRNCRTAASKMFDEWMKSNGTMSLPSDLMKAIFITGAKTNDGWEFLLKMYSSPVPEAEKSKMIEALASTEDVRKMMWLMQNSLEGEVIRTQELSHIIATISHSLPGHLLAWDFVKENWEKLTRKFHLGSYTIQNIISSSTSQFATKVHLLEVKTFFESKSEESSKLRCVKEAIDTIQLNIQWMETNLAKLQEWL", "experiment": "competition for [125I]Ang IV binding, E13 chicken chorioallantoic membranes"}},
  "note": "Where no end group is shown, it is not given here. [ ]: non-standard residue; d: D form. Nle = CCCC[C@H](N)C(=O)O",
  "data": [
    {"binder": "[Nle]YIHPF", "note": "[Nle^1-AIV]", "values": [
      {"measurement": "IC50", "setting": "[1]", "value": 8, "unit": "µM"},
      {"measurement": "IC50", "setting": "[2]", "value": 0.043, "unit": "µM"}
    ]}
  ]
}
